Values quoted from earlier work, collected in publication PMC3022668.

Target: streptavidin (Streptomyces avidinii) (UniProt P22629)
Sequence (P22629 25-183): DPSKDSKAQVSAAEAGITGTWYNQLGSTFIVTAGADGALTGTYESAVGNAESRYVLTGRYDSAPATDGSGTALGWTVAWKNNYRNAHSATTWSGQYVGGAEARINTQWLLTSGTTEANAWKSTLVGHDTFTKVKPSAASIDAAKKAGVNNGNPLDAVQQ

streptavidin-binding peptide (SBP)
Kd: 2.5 nM
